In article PMC5421356 (Molecular genetics and metabolism, 2017):

Target: the molecule itself
Test: SEC

B1: human tryptophan 2,3-dioxygenase (40-390), Met108Ile variant (enzyme, UniProt P48775 40-390, looked up)
chain: LIYGNYLHLEKVLNAQELQSETKGNKIHDEHLFIITHQAYELWFKQILWELDSVREIFQNGHVRDERNILKVVSRMHRVSVILKLLVQQFSILETMTALDFNDFREYLSPASGFQSLQFRLLENKIGVLQNMRVPYNRRHYRDNFKGEENELLLKSEQEKTLLELVEAWLERTPGLEPHGFNFWGKLEKNITRGLEEEFIRIQAKEESEEKEEQVAEFQKQKEVLLSLFDEKRHEHLLSKGERRLSYRALQGALMIYFYREEPRFQVPFQLLTSLMDIDSLMTKWRYNHVCMVHRMLGSKAGTGGSSGYHYLRSTVSDRYKVFVDLFNLSTYLIPRHWIPKMNPTIHKFLY
- stoichiometry N: 4
